Assays:
[1] = molecular target: SARS-CoV-2 B.1.1.7 (variant Alpha) spike on pseudovirus (SARS-CoV-2) (UniProt P0DTC2); test: cell-based or functional assay
[2] = molecular target: SARS-CoV-2 D614G spike without stabilizing modifications (on cells or pseudovirus) (SARS-CoV-2) (UniProt P0DTC2); test: cell-based or functional assay

## isotype control antibody with irrelevant binding
[1]
  Pseudovirus IC50: > 5 µM
[2]
  Pseudovirus IC50: > 5 µM

Source: patent US20240294611A1
